Measurements reported in the supplement of paper PMC10567573.

B1: TMEM106C (parent)
chain: SEQLVNFTGKAEMGGPFSYVYFFC

Variants of: B1
Assay: protein stability index of a GFP-peptide fusion (GPS, HEK-293T) (PSI 1-6); higher = more stable
Details: c terminus: a fixed tail appended
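Note: lentivirally expressed fusions sorted by FACS into six bins by GFP to DsRed ratio, PSI derived from sequencing read proportions per bin multiplied by bin number.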

Protein stability index, by site and new letter:
F22: H 3.04 | V 3.27 | N 1.79 | P 2.06 | Q 2.07 | K 1.84 | M 3.04 | D 2.33 | G 2.86 | I 1.96 | E 1.88 | A 2.62 | Y 2.78 | R 2.28 | S 2.12 | T 3.71 | W 2.21 | C 2.58
Y21: M 3.64 | K 2.06 | V 3.6 | F 3.1 | S 2.44 | H 2.26 | R 1.49 | C 2.42 | D 1.89 | A 3.06 | Q 2.15 | T 3.31 | P 1.49 | N 2.82 | E 1.42 | L 3.93 | G 1.84
F23: D 1.56 | W 3.85 | E 2.15 | Y 3.3 | G 3.03 | H 2.28 | S 3.45 | C 2.54 | A 2.45 | N 1.35 | P 1.51 | Q 2.9 | L 2.08 | K 1.79 | V 3.22 | T 2.05 | I 2.42 | R 4.48
C24: G 2.53 | Y 3.05 | R 2.09 | Q 1.54 | M 2.82 | P 1.73 | K 2.07 | E 2.29 | H 3.25 | S 2.23 | A 3.11 | N 1.89 | D 2.36 | I 3.26 | W 3.35 | T 3.96 | F 3.13 | V 3.49
V20: K 1.55 | Q 2.65 | N 2.69 | Y 2.53 | T 2.77 | W 1.79 | R 1.68 | S 2.56 | L 2.07 | P 1.98 | M 2.65
